T1: GST-Dpb11-wild-type (budding yeast, UniProt P47027 1-764)
T1 construct: Dpb11, budding yeast, full-length; also called Full-length Dpb11; wild-type Dpb11
T1 sequence (looked up): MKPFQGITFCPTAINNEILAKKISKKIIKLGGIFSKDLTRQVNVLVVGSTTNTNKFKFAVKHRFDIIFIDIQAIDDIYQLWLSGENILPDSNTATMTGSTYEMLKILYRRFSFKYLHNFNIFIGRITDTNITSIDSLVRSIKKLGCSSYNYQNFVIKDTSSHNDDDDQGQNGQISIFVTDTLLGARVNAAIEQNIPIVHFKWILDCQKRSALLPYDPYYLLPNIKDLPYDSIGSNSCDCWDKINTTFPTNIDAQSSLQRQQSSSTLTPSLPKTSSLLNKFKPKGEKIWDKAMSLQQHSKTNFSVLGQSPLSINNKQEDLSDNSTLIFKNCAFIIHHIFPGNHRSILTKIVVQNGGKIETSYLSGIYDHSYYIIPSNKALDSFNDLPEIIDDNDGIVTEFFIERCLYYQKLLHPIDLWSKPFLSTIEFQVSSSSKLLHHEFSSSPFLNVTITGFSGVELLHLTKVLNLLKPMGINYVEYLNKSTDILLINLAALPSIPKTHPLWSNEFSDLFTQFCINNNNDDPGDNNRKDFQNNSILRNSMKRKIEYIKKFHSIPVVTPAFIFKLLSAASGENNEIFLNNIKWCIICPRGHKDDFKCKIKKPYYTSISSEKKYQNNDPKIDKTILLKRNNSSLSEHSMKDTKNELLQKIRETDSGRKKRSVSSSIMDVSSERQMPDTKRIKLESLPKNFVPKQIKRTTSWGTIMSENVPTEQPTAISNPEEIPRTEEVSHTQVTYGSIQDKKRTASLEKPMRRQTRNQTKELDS

B1: Cdc45 (purified, radiolabelled) (natural protein, budding yeast, UniProt Q08032 1-650, looked up)
chain: MYYGISQFSEAYNKILRNSSSHSSCQLVIFVSCLNIDALCATKMLSLLFKKQLVQSQIVPIFGYSELRRHYSQLDDNINSLLLVGFGGVIDLEAFLEIDPQEYVIDTDEKSGEQSFRRDIYVLDAHRPWNLDNIFGSQIIQCFDDGTVDDTLGEQKEAYYKLLELDEESGDDELSGDENDNNGGDDEATDADEVTDEDEEDEDETISNKRGNSSIGPNDLSKRKQRKKQIHEYEGVLEEYYSQGTTVVNSISAQIYSLLSAIGETNLSNLWLNILGTTSLDIAYAQVYNRLYPLLQDEVKRLTPSSRNSVKTPDTLTLNIQPDYYLFLLRHSSLYDSFYYSNYVNAKLSLWNENGKKRLHKMFARMGIPLSTAQETWLYMDHSIKRELGIIFDKNLDRYGLQDIIRDGFVRTLGYRGSISASEFVEALTALLEVGNSTDKDSVKINNDNNDDTDGEEEEDNSAQKLTNLRKRWVSNFWLSWDALDDRKVELLNRGIQLAQDLQRAIFNTGVAILEKKLIKHLRIYRLCVLQDGPDLDLYRNPLTLLRLGNWLIECCAESEDKQLLPMVLASIDENTDTYLVAGLTPRYPRGLDTIHTKKPILNNFSMAFQQITAETDAKVRIDNFESSIIEIRREDLSPFLEKLTLSGLL
notes: Cdc45, budding yeast; The legend says only 'Similar to (A), except Cdc45 was used in place of Sld2T84D'; not shown: PKA tag (inferred from the radiolabelling method), N-terminal, kept
B2: GST-Dpb11-m1,2,3,5,ΔC (natural protein, budding yeast, UniProt P47027 1-615, looked up)
chain: MKPFQGITFCPTAINNEILAKKISKKIIKLGGIFSKDLTRQVNVLVVGSTTNTNKFKFAVKHRFDIIFIDIQAIDDIYQLWLSGENILPDSNTATMTGSTYEMLKILYRRFSFKYLHNFNIFIGRITDTNITSIDSLVRSIKKLGCSSYNYQNFVIKDTSSHNDDDDQGQNGQISIFVTDTLLGARVNAAIEQNIPIVHFKWILDCQKRSALLPYDPYYLLPNIKDLPYDSIGSNSCDCWDKINTTFPTNIDAQSSLQRQQSSSTLTPSLPKTSSLLNKFKPKGEKIWDKAMSLQQHSKTNFSVLGQSPLSINNKQEDLSDNSTLIFKNCAFIIHHIFPGNHRSILTKIVVQNGGKIETSYLSGIYDHSYYIIPSNKALDSFNDLPEIIDDNDGIVTEFFIERCLYYQKLLHPIDLWSKPFLSTIEFQVSSSSKLLHHEFSSSPFLNVTITGFSGVELLHLTEVLNLLEPMGINYVEYLNKSTDILLINLAALPSIPKTHPLWSNEFSDLFTQFCINNNNDDPGDNNRKDFQNNSILENSMKRKIEYIEKFHSIPVVTPAFIFKLLSAASGENNEIFLNNIKWCIICPRGHKDDFKCKIKKPYYTSISSEKKYQN
notes: Dpb11, budding yeast; ΔC = deletion of amino acids 616 to 764 (the C-terminus), so residues up to 615 remain; m1,2,3,5 = K463E, K469E, R538E, K549E in the BRCT4 motif; also called Dpb11-K463E, K469E, R538E,K549E, Δaa616-764; Dpb11-m1,2,3,4,ΔC (as printed once)

What was measured:
Assay in all cases: pull-down; 10 pmol GST-tagged Dpb11 with 32P-labelled protein, no DNA; GST-binding buffer (40 mM Tris-HCl pH 7.5, 100 mM NaCl, 0.1 mM EDTA, 10% glycerol, 0.1% Triton X-100, 1 mM DTT, 0.1 mg/ml BSA), 25°C 1 h; glutathione Sepharose, two washes; SDS-PAGE and phosphorimaging
Settings in all cases: both partners purified
GST-Dpb11-wild-type = biological target: T1, GST-Dpb11-wild-type
GST-Dpb11-m1,2,3,5,ΔC = biological target: B2
[1] = biological target: B1
[2] = biological target: T2, Mcm2-7 complex with a PKA tag at the N-terminus of Mcm2 (budding yeast, UniProt P29469 1-868; P24279 1-971; P30665 1-933; P29496 1-775; P53091 1-1017; P38132 …, 32P-phosphate on the PKA tag)
T2 construct: Mcm2, budding yeast; Mcm3, budding yeast; Mcm4, budding yeast; Mcm5, budding yeast; Mcm6, budding yeast; Mcm7, budding yeast (named only within 'Mcm2-7'); not shown: PKA tag, N-terminal, kept; copies: + + + + +

binding result (GST-Dpb11-wild-type) | binding result (GST-Dpb11-m1,2,3,5,ΔC) | binding result [1] | binding result [2] | Binder
binds | binds |  |  | PKA-Sld2T84D (natural protein, budding yeast, UniProt P34252 1-453, looked up, 32P-phosphate on the artificial PKA site, Sld2, budding yeast, with T84D; not shown: PKA site, N-terminal, kept) MYSFELDKLKIELKTWEHDFIDKNKREPTRDDIKSLRTVRQMYKQYSTLKKKQSLQRQKVDTQESVELPAHKKDHDEVVEIGPDPQVYGKAISIFDMNLSPIKPIYMTFTNNIDVNNDNSKTISNESSPRKTILLKSSPADRTLVAEPISSVKRQLNFQMLNASSTRTPTSSPCKNRNGKLVEIKKCSPTINPPLESGKPSGYYGPNSPLKLDEENIHLNISLNSSTKRRLQIAYPSLQKTPSKDQADISTSFSPSPLIRRPLTKSLIELAREHTEIVKEFGVLQEEDIEEEEEGEEGENGYDEKNHEDDFGLEDELIRPKVVKDIFQEDDDNDDSQAREDTFIRKRPKRRKVIRRLRDNDPETETAGFERDVHKELVKLKRRKVAEFLGSTSQISDTEFEHDPEASSGVVSSEQKPTAKRKGRKKYNLVSNNFRRLKLPKKNRFSNGRWGRR
binds |  |  |  | B1
 |  | binds | binds | B2

— paper PMC5415106, “Dpb11 may function with RPA and DNA to initiate DNA replication” (PLoS ONE, 2017)
